In the supplement of paper PMC10598134:
± gives the standard deviation.

Experiment: collision cross section of modified peptide (TIMS, N2, iRT-aligned); higher = larger / more extended gas-phase ion
Method in brief: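 Synthetic peptide pools (~100 fmol/µL in 2% acetonitrile/0.1% formic acid, iRT standard spiked 1:40) were separated on a 120-min nanoflow C18 gradient at 60 °C. They were analysed on a timsTOF Pro/HT (dda-PASEF, nitrogen, ~2.4 mbar) and identified with MaxQuant. 1/K0 was calibrated with three reference ions and aligned run-wise to the median iRT peptide deviation. Collision cross section came from the Mason-Schamp equation, averaging 1–3 technical replicates of the most abundant feature per charge state.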

[1] = charge state: 2, modification: Malonyl
[2] = charge state: 2, modification: Phospho (Y)
[3] = charge state: 2, modification: Crotonyl
[4] = charge state: 2, modification: Methyl (K)
[5] = charge state: 3, modification: Methyl (K)
[6] = charge state: 3, modification: Trimethyl (K)
[7] = charge state: 2, modification: Acetyl (K)
[8] = charge state: 3, modification: Acetyl (K)
[9] = charge state: 2, modification: Formyl
[10] = charge state: 2, modification: Methyl (R)
[11] = charge state: 3, modification: Methyl (R)
[12] = charge state: 2, modification: Propionyl
[13] = charge state: 2, modification: Biotin
[14] = charge state: 2, modification: Nitro (Y)
[15] = charge state: 2, modification: Glutarylation
[16] = charge state: 2, modification: Trimethyl (K)
[17] = charge state: 2, modification: GlyGly (K)
[18] = charge state: 3, modification: GlyGly (K)
[19] = charge state: 2, modification: Butyryl
[20] = charge state: 3, modification: Dimethyl (K)
[21] = charge state: 3, modification: Glutarylation
[22] = charge state: 2, modification: HexNAc (ST)
[23] = charge state: 3, modification: Butyryl

Work on LEEVTGKLQVAR [_LEEVTGK(Malonyl)LQVAR_] yielded a collision cross section [1] of 393.19 ± 0.021 Å².
In the case of FEGAIYR [_FEGAIY(Phospho (Y))R_], the collision cross section [2] is reported as 333.04 ± 0.65 Å².
With “VDIDVPDVNIEGPDAKLK [_VDIDVPDVNIEGPDAK(Crotonyl)LK_]” the collision cross section [3] was 487.32 Å².
For “VNIGQGSHPQKVK [_VNIGQGSHPQK(Methyl (K))VK_]”, the collision cross section [4] was 409.02 ± 0.54 Å² and the collision cross section [5] was 465.41 ± 17 Å².
With “SLEEEGAAHSGKR [_SLEEEGAAHSGK(Trimethyl (K))R_]” the collision cross section [6] was 465.19 ± 1.5 Å².
For “DSSPTTNSKLSALQR [_DSSPTTNSK(Acetyl (K))LSALQR_]”, the collision cross section [7] was 430.6 ± 0.81 Å² and the collision cross section [8] was 495.74 ± 2.2 Å².
For “YIEIYVQKVNPSR [_YIEIYVQK(Succinyl)VNPSR_]”, the collision cross section (charge state: 2, modification: Succinyl) was 436.15 Å².
Substance YRGDYDR [_YR(Citrullination (R))GDYDR_] has a collision cross section (charge state: 2, modification: Citrullination (R)) of 333.6 ± 1.8 Å².
“LQAAYAGDKADDIQK [_LQAAYAGDK(Acetyl (K))ADDIQK_]” showed a collision cross section [7] of 429.91 ± 2.1 Å² and a collision cross section [8] of 488.96 ± 0.48 Å².
For “VDIDAPDVSIEGPDAKLK [_VDIDAPDVSIEGPDAK(Formyl)LK_]”, the collision cross section [9] was 461.12 Å².
With “PGPQPSAETTR [_P(Hydroxyproline)GPQPSAETTR_]” the collision cross section (charge state: 3, modification: Hydroxyproline) was 412.85 Å².
Substance DVNAAIAAIKTK [_DVNAAIAAIK(Crotonyl)TK_] has a collision cross section [3] of 406.32 ± 0.28 Å² and a collision cross section (charge state: 3, modification: Crotonyl) of 463.44 ± 4.2 Å².
Substance LEKTIDDLEEK [_LEK(Crotonyl)TIDDLEEK_] has a collision cross section [3] of 409.2 ± 1.1 Å².
For “SFDEVEGVFGRGGGR [_SFDEVEGVFGR(Methyl (R))GGGR_]”, the collision cross section [10] was 429.58 ± 1.6 Å² and the collision cross section [11] was 513.29 ± 1.2 Å².
In the case of GLATFPSRGAK [_GLATFPSR(Methyl (R))GAK_], the collision cross section [10] is reported as 371.86 ± 0.78 Å² and the collision cross section [11] is reported as 447 ± 3.2 Å².
In the case of “LQDVSGQLSSSKK [_LQDVSGQLSSSK(Propionyl)K_]”, the collision cross section [12] is reported as 399.52 ± 0.65 Å² and the collision cross section (charge state: 3, modification: Propionyl) is reported as 471.63 Å².
In the case of SLKLNTAEDAK [_SLK(Biotin)LNTAEDAK_], the collision cross section [13] is reported as 397.96 Å².
In the case of “IVSGKDYNVTANSK [_IVSGK(Methyl (K))DYNVTANSK_]”, the collision cross section [4] is reported as 411.95 ± 2 Å² and the collision cross section [5] is reported as 471.19 ± 3.6 Å².
In the case of LDYSDFQIVK [_LDY(Nitro (Y))SDFQIVK_], the collision cross section [14] is reported as 369.5 ± 0.55 Å².
Substance “PGGEGPQCEKTTDVK [_PGGEGPQCEK(Acetyl (K))TTDVK_]” has a collision cross section [7] of 415.43 ± 2 Å².
For “VDIDAPDVSIEGPDAKLK [_VDIDAPDVSIEGPDAK(Gluratylation)LK_]”, the collision cross section [15] was 469.43 ± 1.5 Å².
For “ISSNFSSIIAEKLR [_ISSNFSSIIAEK(Gluratylation)LR_]”, the collision cross section [15] was 430.8 ± 0.96 Å².
For “DLSTVEALQNLKNLK [_DLSTVEALQNLK(Trimethyl (K))NLK_]”, the collision cross section [16] was 478.82 ± 1.1 Å² and the collision cross section [6] was 501.71 ± 2.5 Å².
With VYSLFLDESR [_VY(Nitro (Y))SLFLDESR_] the collision cross section [14] was 377.85 ± 0.17 Å².
In the case of ALASIDSKLNQAK [_ALASIDSK(Biotin)LNQAK_], the collision cross section [13] is reported as 417.14 ± 2.9 Å² and the collision cross section (charge state: 3, modification: Biotin) is reported as 481.19 Å².
Substance TTEETSKPK [_TTEETSK(Gluratylation)PK_] has a collision cross section [15] of 352.76 ± 0.56 Å².
With “PGGEGPQCEKTTDVK [_PGGEGPQCEK(GlyGly (K))TTDVK_]” the collision cross section [17] was 422.06 ± 1.9 Å² and the collision cross section [18] was 492.2 ± 3 Å².
“VDIDVPDVNIEGPDAKLK [_VDIDVPDVNIEGPDAK(Butyryl)LK_]” showed a collision cross section [19] of 488.42 ± 0.47 Å².
For “GFALVGVGSEASSKK [_GFALVGVGSEASSK(Dimethyl (K))K_]”, the collision cross section (charge state: 2, modification: Dimethyl (K)) was 439.69 ± 1.2 Å² and the collision cross section [20] was 485.09 ± 1.2 Å².
Work on “IQQELQTAKK [_IQQELQTAK(Gluratylation)K_]” yielded a collision cross section [15] of 388.2 ± 0.52 Å² and a collision cross section [21] of 444.75 Å².
MFLSFPTTK [_MFLS(HexNAc (ST))FPTTK_] showed a collision cross section [22] of 373.63 ± 0.17 Å².
For “IHVQSSSDSSDEPAEKR [_IHVQSSSDSSDEPAEK(Trimethyl (K))R_]”, the collision cross section [6] was 528.1 ± 1.6 Å².
With “YSSSSIPEPFGSRGSPR [_YSSSSIPEPFGSR(Methyl (R))GSPR_]” the collision cross section [11] was 522.38 ± 1.8 Å².
“SPSDSGYSYETIGKTTK [_SPSDSGYSYETIGK(GlyGly (K))TTK_]” gave a collision cross section [17] of 483.23 ± 1.5 Å² and a collision cross section [18] of 532.2 ± 3.5 Å².
Substance DVNAAIAAIKTK [_DVNAAIAAIK(Malonyl)TK_] has a collision cross section [1] of 406.2 ± 0.59 Å².
Work on “GFCFITYTDEEPVKK [_GFCFITYTDEEPVK(hydroxyisobutyryl)K_]” yielded a collision cross section (charge state: 2, modification: hydroxyisobutyryl) of 453.41 ± 0.8 Å².
GAEKTEVAEPR [_GAEK(Biotin)TEVAEPR_] showed a collision cross section [13] of 393.63 Å².
In the case of “LGVATVAKGVCGACK [_LGVATVAK(Acetyl (K))GVCGACK_]”, the collision cross section [7] is reported as 413.53 ± 0.49 Å².
“ASAISIKLGSSK [_ASAISIK(Acetyl (K))LGSSK_]” showed a collision cross section [7] of 368.59 ± 0.51 Å².
SKLLFSNTAAQK [_SK(Malonyl)LLFSNTAAQK_] showed a collision cross section [1] of 394.73 ± 0.61 Å².
For “PGGEGPQCEKTTDVK [_PGGEGPQCEK(Formyl)TTDVK_]”, the collision cross section [9] was 413.32 Å².
Work on YTTNNSSEQR [_Y(Phospho (Y))TTNNSSEQR_] yielded a collision cross section [2] of 363.91 ± 0.65 Å².
Work on “VNIGQGSHPQKVK [_VNIGQGSHPQK(GlyGly (K))VK_]” yielded a collision cross section [17] of 422.43 ± 1.1 Å² and a collision cross section [18] of 490.21 ± 0.72 Å².
Work on “LAPEYEAAATR [_LAPEY(Phospho (Y))EAAATR_]” yielded a collision cross section [2] of 374.2 ± 0.063 Å².
“VNIGQGSHPQKVK [_VNIGQGSHPQK(Butyryl)VK_]” showed a collision cross section [19] of 432.28 ± 0.24 Å² and a collision cross section [23] of 485.89 ± 2.6 Å².
Work on “VGVEVPDVNIEGPEGKLK [_VGVEVPDVNIEGPEGK(Acetyl (K))LK_]” yielded a collision cross section [7] of 456.04 ± 2.4 Å² and a collision cross section [8] of 513.89 Å².
With “FSAYIKNSNPALNDNLEK [_FSAYIK(Crotonyl)NSNPALNDNLEK_]” the collision cross section [3] was 486.61 ± 2.3 Å².
“IVEKYGYTHLSAGELLR [_IVEK(Dimethyl (K))YGYTHLSAGELLR_]” gave a collision cross section [20] of 550.8 Å².
“SLEEEGAAHSGKR [_SLEEEGAAHSGK(Butyryl)R_]” gave a collision cross section [19] of 418.69 ± 0.77 Å² and a collision cross section [23] of 478.81 ± 1.8 Å².
For “LQAAYAGDKADDIQK [_LQAAYAGDK(Propionyl)ADDIQK_]”, the collision cross section [12] was 432.96 ± 1.1 Å².
“IINEPTAAAIAYGLDKK [_IINEPTAAAIAYGLDK(Acetyl (K))K_]” gave a collision cross section [7] of 458.66 ± 2.6 Å² and a collision cross section [8] of 554.46 ± 1.6 Å².
In the case of “IHVQSSSDSSDEPAEKR [_IHVQSSSDSSDEPAEK(Acetyl (K))R_]”, the collision cross section [7] is reported as 446.96 ± 2.2 Å² and the collision cross section [8] is reported as 501.64 ± 1.1 Å².
In the case of “GGGGGGGGGAPRGR [_GGGGGGGGGAPR(Methyl (R))GR_]”, the collision cross section [10] is reported as 346.08 ± 2.1 Å² and the collision cross section [11] is reported as 427.42 ± 3.8 Å².
With “VQGGALEDSQLVAGVAFKK [_VQGGALEDSQLVAGVAFK(Trimethyl (K))K_]” the collision cross section [16] was 515.46 ± 1.1 Å² and the collision cross section [6] was 564.46 ± 0.92 Å².
Substance VGTASVLQPVKK [_VGTASVLQPVK(Formyl)K_] has a collision cross section [9] of 375.49 ± 0.89 Å².
In the case of “DYSSGFGGKYGVQADR [_DYSSGFGGK(Crotonyl)YGVQADR_]”, the collision cross section [3] is reported as 437.04 ± 0.54 Å².
LTEKELAEAASK [_LTEK(Malonyl)ELAEAASK_] gave a collision cross section [1] of 390.08 ± 1.1 Å² and a collision cross section (charge state: 3, modification: Malonyl) of 448.74 ± 2.2 Å².
Substance “SPPLPEHQKIPCNSAEPK [_SPPLPEHQK(GlyGly (K))IPCNSAEPK_]” has a collision cross section [18] of 516.26 Å².
In the case of “ITESVAETAQTIKK [_ITESVAETAQTIK(Formyl)K_]”, the collision cross section [9] is reported as 415.52 ± 0.56 Å² and the collision cross section (charge state: 3, modification: Formyl) is reported as 507.5 ± 1.5 Å².
Substance “AGPNASIISLKSDK [_AGPNASIISLK(Butyryl)SDK_]” has a collision cross section [19] of 413.93 ± 1.1 Å².
“SKHLQEQLNELK [_SK(Gluratylation)HLQEQLNELK_]” showed a collision cross section [15] of 423.49 ± 0.97 Å² and a collision cross section [21] of 496.16 ± 2 Å².
Substance DHLSDKESK [_DHLSDK(Crotonyl)ESK_] has a collision cross section [3] of 361.16 ± 11 Å².
GSELQNYFTK [_GSELQNY(Nitro (Y))FTK_] gave a collision cross section [14] of 363.07 ± 0.55 Å².
Work on “SYISSQTNDTHK [_S(HexNAc (ST))YISSQTNDTHK_]” yielded a collision cross section [22] of 405.45 ± 0.67 Å².
Work on “TLTPASSPVSSPSKHGDR [_TLTPASSPVSSPS(HexNAc (ST))KHGDR_]” yielded a collision cross section (charge state: 3, modification: HexNAc (ST)) of 519.55 ± 0.18 Å².
GLPGEPGPR [_GLPGEP(Hydroxyproline)GPR_] showed a collision cross section (charge state: 2, modification: Hydroxyproline) of 312.79 ± 1.3 Å².
Work on SDDESSQKDIK [_SDDESSQK(Crotonyl)DIK_] yielded a collision cross section [3] of 379.43 ± 0.8 Å².
VVDLLAPYAK [_VVDLLAPY(Nitro (Y))AK_] showed a collision cross section [14] of 371.07 ± 0.55 Å².
For LAEEENKAK [_LAEEENK(GlyGly (K))AK_], the collision cross section [17] was 356.17 ± 0.39 Å² and the collision cross section [18] was 428.57 ± 0.75 Å².
Work on LLEEEDSKLK [_LLEEEDSK(Acetyl (K))LK_] yielded a collision cross section [7] of 378.84 ± 0.45 Å².
Work on VGEFSGANKEK [_VGEFSGANK(Methyl (K))EK_] yielded a collision cross section [4] of 374.84 ± 0.74 Å² and a collision cross section [5] of 443.95 ± 6.6 Å².
